The values that follow come from PMC11743793, “Structural insights into human topoisomerase 3β DNA and RNA catalysis and nucleic acid gate dynamics” (Nature Communications, 2025).

Series [1] has as its target T1, human full-length TOP3B(Y336F) (human, UniProt O95985 1-862, Y336F).
T1 construct: DNA topoisomerase 3-beta (TOP3B), human, full length; residues 1-717 resolved in the apo map; not shown: His8, N-terminal, cleaved; MBP, N-terminal, cleaved
T1 sequence (looked up): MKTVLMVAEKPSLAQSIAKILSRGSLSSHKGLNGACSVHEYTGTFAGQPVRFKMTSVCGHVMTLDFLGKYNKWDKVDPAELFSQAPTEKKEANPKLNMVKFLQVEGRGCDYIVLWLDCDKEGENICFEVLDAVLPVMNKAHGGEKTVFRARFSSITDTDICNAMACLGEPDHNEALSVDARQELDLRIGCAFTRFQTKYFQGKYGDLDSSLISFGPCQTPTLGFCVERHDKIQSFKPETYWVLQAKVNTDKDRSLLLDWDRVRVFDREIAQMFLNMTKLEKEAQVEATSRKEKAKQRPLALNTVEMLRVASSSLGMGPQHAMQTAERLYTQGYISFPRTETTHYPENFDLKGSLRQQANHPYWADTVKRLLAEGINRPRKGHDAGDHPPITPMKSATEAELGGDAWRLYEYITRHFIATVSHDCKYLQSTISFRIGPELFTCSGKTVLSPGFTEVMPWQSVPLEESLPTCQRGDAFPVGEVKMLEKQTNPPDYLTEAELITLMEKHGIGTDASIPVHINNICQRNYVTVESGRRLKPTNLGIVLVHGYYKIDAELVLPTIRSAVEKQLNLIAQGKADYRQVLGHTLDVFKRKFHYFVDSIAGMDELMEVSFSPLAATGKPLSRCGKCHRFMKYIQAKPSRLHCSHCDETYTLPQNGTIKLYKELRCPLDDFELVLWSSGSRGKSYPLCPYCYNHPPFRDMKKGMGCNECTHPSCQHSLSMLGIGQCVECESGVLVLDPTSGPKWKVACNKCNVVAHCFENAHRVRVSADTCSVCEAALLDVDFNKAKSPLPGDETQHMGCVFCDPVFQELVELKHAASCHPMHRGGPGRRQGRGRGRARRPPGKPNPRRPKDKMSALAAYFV
The series can be described thus: cryo-EM structure; full-length TOP3B(Y336F)-TDRD3(1-190 aa) with a DNA mismatch bubble or a short R-loop substrate; cryo-EM volumes. As to conditions: both partners purified.

Series [2] concerns the molecule itself. The series can be described thus: cryo-EM structure; cTOP3B mixed with a DNA bubble (11-nt strand opposite 13 unmatched nucleotides) at about 1:1; species with two cTOP3B on one DNA bubble, ~4.3 Å map from 63,000 particles.
The target of series [3] is T2, human TOP3Bcore-K10M (1-612 aa) (human, UniProt O95985 1-612, K10M).
T2 construct: DNA topoisomerase 3-beta (TOP3B), human, core, residues 1-612, rejoining-deficient mutant; In the rejoining complexes Y336 carries the tyrosyl-phosphodiester linkage to the cleaved DNA/RNA (PTR336); also called TOP3B chain of cTOP3B-K10M; not shown: His8, N-terminal, cleaved; MBP, N-terminal, cleaved
T2 sequence (looked up): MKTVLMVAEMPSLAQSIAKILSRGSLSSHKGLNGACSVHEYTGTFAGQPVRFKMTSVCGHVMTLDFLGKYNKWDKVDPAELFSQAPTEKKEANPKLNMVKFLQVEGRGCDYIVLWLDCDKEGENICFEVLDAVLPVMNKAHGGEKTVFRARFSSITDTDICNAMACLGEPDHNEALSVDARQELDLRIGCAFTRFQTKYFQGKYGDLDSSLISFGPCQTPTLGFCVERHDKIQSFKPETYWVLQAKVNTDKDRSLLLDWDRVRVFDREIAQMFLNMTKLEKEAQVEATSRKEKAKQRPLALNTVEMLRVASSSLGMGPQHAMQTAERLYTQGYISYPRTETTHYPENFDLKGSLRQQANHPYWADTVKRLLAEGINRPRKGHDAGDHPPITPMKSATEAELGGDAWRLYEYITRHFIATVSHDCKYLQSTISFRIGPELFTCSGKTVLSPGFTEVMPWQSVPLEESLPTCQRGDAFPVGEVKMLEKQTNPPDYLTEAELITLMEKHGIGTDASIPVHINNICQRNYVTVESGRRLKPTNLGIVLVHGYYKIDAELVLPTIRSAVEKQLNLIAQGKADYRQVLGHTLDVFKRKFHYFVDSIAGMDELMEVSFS
The series can be described thus: cryo-EM structure; cTOP3B heterodimer (wild type, Y336F or K10M; 3 mg/ml) mixed with equimolar gapped 43-mer DNA or RNA; 25 mM Bis-Tris pH 6.8, 0.1 M KCl, 0.5 mM MnCl2 (5 mM for the rejoining complexes), 0.1% octyl β-D-glucopyranoside, 4 mM DTT, 2% glycerol; RT. As to conditions: both partners purified.

Series [4] addresses T3, human TOP3Bcore-Y336F (1-612 aa) (human, UniProt O95985 1-612, Y336F).
T3 construct: DNA topoisomerase 3-beta (TOP3B), human, core, residues 1-612, catalytic tyrosine changed to phenylalanine; also called TOP3B chain of cTOP3B-Y336F; not shown: His8, N-terminal, cleaved; MBP, N-terminal, cleaved
T3 sequence (looked up): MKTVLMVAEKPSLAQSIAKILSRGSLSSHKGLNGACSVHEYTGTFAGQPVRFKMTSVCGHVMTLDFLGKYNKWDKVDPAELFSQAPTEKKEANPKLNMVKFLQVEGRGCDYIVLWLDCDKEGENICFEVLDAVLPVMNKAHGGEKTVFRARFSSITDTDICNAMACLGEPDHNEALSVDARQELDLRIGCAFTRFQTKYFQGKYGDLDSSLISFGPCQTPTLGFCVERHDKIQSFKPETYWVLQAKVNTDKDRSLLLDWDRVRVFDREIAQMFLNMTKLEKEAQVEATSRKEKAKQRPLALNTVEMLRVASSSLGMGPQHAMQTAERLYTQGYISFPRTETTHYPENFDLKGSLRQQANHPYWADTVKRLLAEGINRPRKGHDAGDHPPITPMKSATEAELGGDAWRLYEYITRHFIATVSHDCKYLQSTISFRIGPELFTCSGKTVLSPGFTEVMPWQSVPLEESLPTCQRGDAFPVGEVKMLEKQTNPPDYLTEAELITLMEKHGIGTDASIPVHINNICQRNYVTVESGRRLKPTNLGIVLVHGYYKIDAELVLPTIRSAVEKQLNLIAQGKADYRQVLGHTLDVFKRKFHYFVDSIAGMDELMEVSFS
Described as above. As to conditions: both partners purified.

B1: human TDRD3(1-190 aa) (domain or fragment, UniProt Q9H7E2 1-190, looked up)
chain: MLRLQMTDGHISCTAVEFSYMSKISLNTPPGTKVKLSGIVDIKNGFLLLNDSNTTVLGGEVEHLIEKWELQRSLSKHNRSNIGTEGGPPPFVPFGQKCVSHVQVDSRELDRRKTLQVTMPVKPTNDNDEFEKQRTAAIAEVAKSKETKTFGGGGGGARSNLNMNAAGNRNREVLQKEKSTKSEGKHEGVY
notes: Tudor domain-containing protein 3 (TDRD3), human, residues 1-190; not shown: His8, N-terminal, cleaved; MBP, N-terminal, cleaved
Consider B1, for which the binding result in series [1] was “binds”.

B2: human TOP3Bcore (1-612 aa), wild type (domain or fragment, UniProt O95985 1-612, looked up)
chain: MKTVLMVAEKPSLAQSIAKILSRGSLSSHKGLNGACSVHEYTGTFAGQPVRFKMTSVCGHVMTLDFLGKYNKWDKVDPAELFSQAPTEKKEANPKLNMVKFLQVEGRGCDYIVLWLDCDKEGENICFEVLDAVLPVMNKAHGGEKTVFRARFSSITDTDICNAMACLGEPDHNEALSVDARQELDLRIGCAFTRFQTKYFQGKYGDLDSSLISFGPCQTPTLGFCVERHDKIQSFKPETYWVLQAKVNTDKDRSLLLDWDRVRVFDREIAQMFLNMTKLEKEAQVEATSRKEKAKQRPLALNTVEMLRVASSSLGMGPQHAMQTAERLYTQGYISYPRTETTHYPENFDLKGSLRQQANHPYWADTVKRLLAEGINRPRKGHDAGDHPPITPMKSATEAELGGDAWRLYEYITRHFIATVSHDCKYLQSTISFRIGPELFTCSGKTVLSPGFTEVMPWQSVPLEESLPTCQRGDAFPVGEVKMLEKQTNPPDYLTEAELITLMEKHGIGTDASIPVHINNICQRNYVTVESGRRLKPTNLGIVLVHGYYKIDAELVLPTIRSAVEKQLNLIAQGKADYRQVLGHTLDVFKRKFHYFVDSIAGMDELMEVSFS
notes: DNA topoisomerase 3-beta (TOP3B), human, core, residues 1-612; In the DNA post-cleavage complex the catalytic Y336 is covalently linked to the DNA scissile phosphate (PTR336); Tags removed by PreScission Protease before SEC; also called hsTOP3Bcore(1-612AA); TOP3B chain of cTOP3B; not shown: His8, N-terminal, cleaved; MBP, N-terminal, cleaved
For B2, the binding result in series [2] is on record as “binds”.

B3: N-terminal fragment of human TDRD3 (1-171 aa) containing its DUF domain and OB-fold (domain or fragment, UniProt Q9H7E2 1-171, looked up)
chain: MLRLQMTDGHISCTAVEFSYMSKISLNTPPGTKVKLSGIVDIKNGFLLLNDSNTTVLGGEVEHLIEKWELQRSLSKHNRSNIGTEGGPPPFVPFGQKCVSHVQVDSRELDRRKTLQVTMPVKPTNDNDEFEKQRTAAIAEVAKSKETKTFGGGGGGARSNLNMNAAGNRNR
notes: Tudor domain-containing protein 3 (TDRD3), human, residues 1-171 (DUF domain and OB-fold); also called TDRD3 chain of cTOP3B; OB (in TOP3Bcore-OB); not shown: His8, N-terminal, cleaved; MBP, N-terminal, cleaved
For the molecule B3, the binding result in series [3] and in series [4] was “binds” each time.
